Experimental data as given in paper PMC10827111 (bioRxiv, 2024).

Assays:
Experiment in all cases: ELISA
[1] = molecular target: MERS-CoV S2 subdomain (MERS-CoV, strain ; stand-in …, UniProt K0BRG7)
[2] = molecular target: SARS-CoV-2 S2 subdomain (Sino Biological) (SARS-CoV-2 (Wuhan-Hu-1 reference), UniProt P0DTC2)
[3] = molecular target: HCoV-OC43 S-2P (HCoV-OC43 (strain ; numbering …, UniProt P36334, stabilised)

Measured: binding result

B1: antibody 54043-5 (IgG) (antibody, V domains shown)
VH: QVQLQESGPGLVKPSQTLSLTCTVSGDSISNSSYYWSWIRQYPSRRLEWIGYIYYNGRTYYNPSLNSRLSISLDTSKNHFSLKLSSLTAADTALYYCARGFLGYCAGGSCFLNWLDPWGQGTLVTVSS
VL: EIIMTQSPATLSVSPGGRATLSCRASQSVSNNLAWYQQKPGQTPRLLIHGASTRATGIPARFSGSGSGTEFTLTISSLQSEDFAVYYCHQYHNWLLTFGGGTKVEIK
binds: [1] | [2] | [3]
